Measured values published in the MegaScale stability set (Tsuboyama et al. 2023).

B1: EHEE_rd3_0053 (parent)
chain: TYTFKVDNKDQAKKAAKWAKKLGLSFQIEKHGDTFKITVQ

Variants of: B1
Assay: folding stability dG (cDNA display proteolysis); higher = more stable
Conditions: PBS, room temperature

Folding stability dG [kcal/mol]: each site, then its substitutions
W18: I 1.72 | K 1.45 | L 1.77 | M 1.68 | N 0.859 | Q 1.17 | R 1.5 | S 0.747 | T 1.1 | V 1.36 | Y 1.61
A19: E -0.425 | F 2.84 | G 0.902 | H 0.465 | I 2.44 | K -0.645 | L 3.38 | M 2.79 | N -0.253 | P -0.671 | Q -0.184 | R -0.112 | S 0.85 | T 0.316 | V 1.47 | W 1.23 | Y 2.32
K20: A 2.29 | C 2.67 | D 1.48 | E 2.02 | F 2.07 | G 1.54 | H 2.01 | I 2.24 | L 2.28 | M 2.34 | N 1.83 | P -0.72 | Q 2.3 | R 2.45 | S 2.08 | T 2.24 | V 1.98 | W 2.14 | Y 2.13
K21: A 2.41 | D 1.89 | E 2.02 | F 1.98 | G 2.12 | H 2.16 | I 1.99 | L 2.15 | M 2.4 | N 2.17 | P -0.644 | Q 2.24 | R 2.49 | S 2.43 | T 2.16 | V 1.89 | W 2.19 | Y 2.02
L22: A 2.08 | C 3.29 | D -0.31 | E 1.46 | F 2.08 | G 0.897 | H 2.6 | I 1.76 | K 2.44 | M 2.54 | N 2.32 | Q 2.14 | R 2.63 | S 1.56 | T 1.41 | V 1.78 | W 2.21 | Y 2.3
G23: A 1.23 | C 1.62 | D 1.02 | E 1.08 | F 1.3 | H 1.79 | I 0.784 | K 1.85 | L 1.24 | M 1.59 | N 1.97 | P -0.809 | Q 1.52 | R 1.66 | S 1.42 | T 0.657 | V 0.722 | W 0.761 | Y 1.1
L24: A 1.01 | D -0.587 | E -0.483 | F 2.2 | G 0.159 | H 1.31 | I 1.73 | K 1.32 | M 2.11 | N 0.22 | Q 0.563 | R 1.15 | S 0.343 | T 0.294 | V 1.4 | W 2.04 | Y 2.33
S25: A 2.36 | D 2.18 | E 2.21 | F 2.31 | G 1.89 | H 2.29 | I 2.43 | K 2.46 | L 2.39 | M 2.29 | N 2.36 | P 1.97 | Q 2.37 | R 2.4 | T 2.45 | V 2.42 | W 2.38 | Y 2.18
F26: A 1.81 | C 2.68 | G -0.311 | H 1.02 | I 2.64 | L 2.13 | M 2.05 | N -0.442 | P 0.848 | Q -0.496 | S 1.03 | T 1.34 | V 2.54 | W 1.88 | Y 2.29
Q27: A 2.31 | C 2.84 | D 1.9 | E 2.22 | F 2.6 | G 1.53 | H 2.52 | I 2.67 | K 2.64 | L 2.42 | M 2.54 | N 2.29 | R 2.61 | S 2.61 | T 2.71 | V 2.62 | W 2.62 | Y 2.58
I28: A 1.42 | E 0.501 | F 1.47 | G -0.457 | H 0.125 | K 1.06 | L 1.84 | M 2.15 | N -0.243 | Q 0.977 | R 0.785 | S 1.26 | T 0.849 | V 2.23 | W 1.53 | Y 1.33
E29: A 2.06 | C 2.64 | D 1.93 | F 1.95 | G 1.19 | H 2.01 | I 2.24 | K 2.07 | L 1.89 | M 2.05 | N 1.77 | Q 2.19 | R 2.11 | S 2.27 | T 2.48 | V 2.43 | W 2 | Y 1.95
K30: A 2.21 | D 1.84 | E 2.04 | F 1.91 | G 1.57 | H 1.91 | I 2.15 | L 1.98 | M 2.16 | N 1.88 | P 2.09 | Q 2.48 | R 2.5 | S 2.03 | T 2.04 | V 2.21 | W 1.64 | Y 1.92
H31: A 2.41 | C 3.09 | D 2.97 | E 2.93 | F 2.55 | G 1.34 | I 2.89 | K 2.14 | L 2.59 | M 2.68 | N 2.42 | P 0.239 | Q 2.65 | R 2.08 | S 2.45 | T 2.66 | V 2.87 | W 2.41 | Y 2.45
G32: A 1.64 | C 1.78 | D 1.85 | E 2.03 | F 1.65 | H 1.61 | I 1.21 | K 1.77 | L 1.7 | M 1.7 | N 1.96 | P 0.72 | Q 1.76 | R 1.58 | S 1.31 | T 0.996 | V 1.19 | W 1.31 | Y 1.59
D33: A 2.18 | E 2.38 | F 2 | G 2.23 | H 2.1 | I 1.91 | K 2.35 | L 2.14 | M 2.1 | N 2.45 | P 2.12 | Q 2.16 | R 2.11 | S 2.33 | T 2.37 | V 1.95 | W 1.76 | Y 1.8
T34: A 2.64 | D 1.89 | E 2.4 | F 2.79 | G 3.12 | H 2.92 | I 2.68 | K 2.65 | L 2.36 | M 2.59 | N 2.28 | P -0.409 | Q 2.81 | R 2.41 | S 2.61 | V 2.71 | W 2.72 | Y 2.92
F35: A 0.298 | C 1.93 | G -0.794 | H 0.715 | I 1.85 | K -0.99 | L 1.49 | M 1.31 | N -0.413 | Q 0.075 | R 0.294 | S -0.159 | T 0.632 | V 1.16 | W 2.75 | Y 2.75
K36: A 2.28 | D 1.65 | E 2.45 | F 3.18 | G 1 | H 2.66 | I 3.28 | L 3.18 | M 2.94 | N 2.16 | Q 2.66 | R 2.53 | S 2.52 | T 2.88 | V 3.14 | W 3.32 | Y 3.17
I37: A 0.507 | F 2.15 | L 1.47 | M 1.51 | V 2.35
